Measurements as given in PMC5501724, “Structural Basis for Specific Interaction of TGFβ Signaling Regulators SARA/Endofin with HD-PTP” (Structure(London, England:1993), 2017).

B1: endofin_(1–84)-strep, in vitro translated [modified: 35S-methionine; 35S-methionine] [human] / His6-HD-PTP_(Bro1-CC) (1-714), bacterially expressed [human] (parent complex)
chain 1: MDSYFKAAVSDLDKLLDDFEQNPDEQDYLQDVQNAYDSNHCSVSSELASSQRTSLLPKDQECVNSCASSETSYGTNESSLNEKT
chain 2: MEAVPRMPMIWLDLKEAGDFHFQPAVKKFVLKNYGENPEAYNEELKKLELLRQNAVRVPRDFEGCSVLRKYLGQLHYLQSRVPMGSGQEAAVPVTWTEIFSGKSVAHEDIKYEQACILYNLGALHSMLGAMDKRVSEEGMKVSCTHFQCAAGAFAYLREHFPQAYSVDMSRQILTLNVNLMLGQAQECLLEKSMLDNRKSFLVARISAQVVDYYKEACRALENPDTASLLGRIQKDWKKLVQMKIYYFAAVAHLHMGKQAEEQQKFGERVAYFQSALDKLNEAIKLAKGQPDTVQDALRFTMDVIGGKYNSAKKDNDFIYHEAVPALDTLQPVKGAPLVKPLPVNPTDPAVTGPDIFAKLVPMAAHEASSLYSEEKAKLLREMMAKIEDKNEVLDQFMDSMQLDPETVDNLDAYSHIPPQLMEKCAALSVRPDTVRNLVQSMQVLSGVFTDVEASLKDIRDLLEEDELLEQKFQEAVGQAGAISITSKAELAEVRREWAKYMEVHEKASFTNSELHRAMNLHVGNLRLLSGPLDQVRAALPTPALSPEDKAVLQNLKRILAKVQEMRDQRVSLEQQLRELIQKDDITASLVTTDHSEMKKLFEEQLKKYDQLKVYLEQNLAAQDRVLCALTEANVQYAAVRRVLSDLDQKWNSTLQTLVASYEAYEDLMKKSQEGRDFYADLESKVAALLERTQSTCQAREAARQQLLDRELKK
B2: HA-HD-PTP_(Bro1-CC) wild-type, expressed in cells [human] / endogenous endofin [human (endogenous in HEK293)] (parent complex)
chain 1: B1 chain 2
chain 2: MDSYFKAAVSDLDKLLDDFEQNPDEQDYLQDVQNAYDSNHCSVSSELASSQRTSLLPKDQECVNSCASSETSYGTNESSLNEKTLKGLTSIQNEKNVTGLDLLSSVDGGTSDEIQPLYMGRCSKPICDLISDMGNLVHATNSEEDIKKLLPDDFKSNADSLIGLDLSSVSDTPCVSSTDHDSDTVREQQNDISSELQNREIGGIKELGIKVDTTLSDSYNYSGTENLKDKKIFNQLESIVDFNMSSALTRQSSKMFHAKDKLQHKSQPCGLLKDVGLVKEEVDVAVITAAECLKEEGKTSALTCSLPKNEDLCLNDSNSRDENFKLPDFSFQEDKTVIKQSAQEDSKSLDLKDNDVIQDSSSALHVSSKDVPSSLSCLPASGSMCGSLIESKARGDFLPQHEHKDNIQDAVTIHEEIQNSVVLGGEPFKENDLLKQEKCKSILLQSLIEGMEDRKIDPDQTVIRAESLDGGDTSSTVVESQEGLSGTHVPESSDCCEGFINTFSSNDMDGQDLDYFNIDEGAKSGPLISDAELDAFLTEQYLQTTNIKSFEENVNDSKSQMNQIDMKGLDDGNINNIYFNAEAGAIGESHGINIICEIVDKQNTIENGLSLGEKSTIPVQQGLPTSKSEITNQLSVSDINSQSVGGARPKQLFSLPSRTRSSKDLNKPDVPDTIESEPSTADTVVPITCAIDSTADPQVSFNSNYIDIESNSEGGSSFVTANEDSVPENTCKEGLVLGQKQPTWVPDSEAPNCMNCQVKFTFTKRRHHCRACGKVFCGVCCNRKCKLQYLEKEARVCVVCYETISKAQAFERMMSPTGSNLKSNHSDECTTVQPPQENQTSSIPSPATLPVSALKQPGVEGLCSKEQKRVWFADGILPNGEVADTTKLSSGSKRCSEDFSPLSPDVPMTVNTVDHSHSTTVEKPNNETGDITRNEIIQSPISQVPSVEKLSMNTGNEGLPTSGSFTLDDDVFAETEEPSSPTGVLVNSNLPIASISDYRLLCDINKYVCNKISLLPNDEDSLPPLLVASGEKGSVPVVEEHPSHEQIILLLEGESFHPVTFVLNANLLVNVKFIFYSSDKYWYFSTNGLHGLGQAEIIILLLCLPNEDTIPKDIFRLFITIYKDALKGKYIENLDNITFTESFLSSKDHGGFLFITPTFQKLDDLSLPSNPFLCGILIQKLEIPWAKVFPMRLMLRLGAEYKAYPAPLTSIRGRKPLFGEIGHTIMNLLVDLRNYQYTLHNIDQLLIHMEMGKSCIKIPRKKYSDVMKVLNSSNEHVISIGASFSTEADSHLVCIQNDGIYETQANSATGHPRKVTGASFVVFNGALKTSSGFLAKSSIVEDGLMVQITPETMNGLRLALREQKDFKITCGKVDAVDLREYVDICWVDAEEKGNKGVISSVDGISLQGFPSEKIKLEADFETDEKIVKCTEVFYFLKDQDLSILSTSYQFAKEIAMACSAALCPHLKTLKSNGMNKIGLRVSIDTDMVEFQAGSEGQLLPQHYLNDLDSALIPVIHGGTSNSSLPLEIELVFFIIEHLF
B3: endofin 22-mer peptide (first 22 residues of endofin) [human] / His6-HD-PTP_(Bro1) (1-361) [human] (parent complex)
chain 1: MDSYFKAAVSDLDKLLDDFEQN
chain 2: MEAVPRMPMIWLDLKEAGDFHFQPAVKKFVLKNYGENPEAYNEELKKLELLRQNAVRVPRDFEGCSVLRKYLGQLHYLQSRVPMGSGQEAAVPVTWTEIFSGKSVAHEDIKYEQACILYNLGALHSMLGAMDKRVSEEGMKVSCTHFQCAAGAFAYLREHFPQAYSVDMSRQILTLNVNLMLGQAQECLLEKSMLDNRKSFLVARISAQVVDYYKEACRALENPDTASLLGRIQKDWKKLVQMKIYYFAAVAHLHMGKQAEEQQKFGERVAYFQSALDKLNEAIKLAKGQPDTVQDALRFTMDVIGGKYNSAKKDNDFIYHEAVPALDTLQPVKGAPLVKPLPVNPTDPAVTGPDIFAKLV
B4: endofin 22-mer peptide (first 22 residues of endofin) [human] / His6-HD-PTP_(Bro1-CC) (1-714), bacterially expressed [human] (parent complex)
chain 1: MDSYFKAAVSDLDKLLDDFEQN
chain 2: B1 chain 2

Variants of: B1
Assay: co-immunoprecipitation with anti-His6 antibody, quantitation of blots; three independent experiments (mean ± SD); parent: 100; read off a plot

| Variant | percent of parent |
| --- | --- |
| chain 1 L15P | ~6 % binding (rel. to WT) |

Variants of: B2
Assay: anti-HA immunoprecipitation from cells, anti-endofin immunoblot, quantitation; four independent experiments (mean ± SD); parent: 100; read off a plot

| Variant | percent of parent |
| --- | --- |
| chain 1 H125A | ~23 % of WT |
| chain 1 F62E | ~30 % of WT |
| chain 1 L202D | ~9.5 % of WT |
| chain 1 T145K | ~13 % of WT |
| chain 1 R198M | ~59 % of WT |
| chain 1 R69L | ~68 % of WT |

Variants of: B3
Assay: biosensor binding (sensogram); parent: 110; read off a plot

| Variant | response [RU] |
| --- | --- |
| chain 1 L15P | ~0 |

Variants of: B4
Assay: biosensor binding (sensogram); parent: 80; read off a plot

| Variant | response [RU] |
| --- | --- |
| chain 1 L15P | ~0 |
